Test results from article PMC3796546.

Molecular target: T1, Smt3 (SUMO), endogenous, Q12306
T1 chain: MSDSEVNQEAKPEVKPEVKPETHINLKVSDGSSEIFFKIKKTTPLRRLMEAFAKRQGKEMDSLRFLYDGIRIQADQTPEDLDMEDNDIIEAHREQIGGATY
Test: co-IP with mass spectrometry
Details: chain shown with the change, cross-linked in vivo with formaldehyde, p value 0.04637

ratio to parent: > 11 | other: sum (parent: 0): 11
B1: N-terminal 3xHA-tagged wild-type Irc20, Q06554 C1239A (protein)
chain: MSAVGALLAREYNVTAEKCDFFLENGSFDSVIAALPALNQEQETVTQKVSKNGKELINVASVNIEIPERISLSNNGRQLFKFIVDIEILPCENDNEATLVVSSDSVSLFQIGFKMENNSKIAVDKQLPLILDICAHKNQERALRNQLENRKSLERKPSRKRRKKNSNVNDPEKLLKSRIHELSLSYKDFECSPVVFRYNDSSLTWVLSFNLKLKFLNNKFNRFSVEANQILDLTFSNRDENEFERYHKHSHIHSNFIQKQFISQILEYSKDRLSKIKPFLPQSIPDLKVNLLPFQRESVEWMLIKEGHGNSLSDTPTVIDEVGLIDFMNEYYAYGYELIARSPDEVGPSLLWNKLTGYILTTEDAAHLYNQYRKERLSGDYPVCAKGVLAEEMGLGKTIEILSLILLNRRKLKDSEATFIDDENRTITKTKTTLIICPNAILKQWLEEIELHANSLKWYTYRGYNEIMKDCKTVDEAVQQLCQYDIIVTSYNIIATEVHHAEFNRSIRSRRLKSPKYDYSSPLALMQFYRIILDEVQMLRSSSTYSAKCTSLLHRIHTWGVSGTPIQNIYNFRMIMSYLKLHPFCDEVDFIRTLQEEIKLRNEAKDYTSNDFVCQLKGVRFSIKDCMNIFYRYDLCIRHSKANVASQIHIPRQHNFIIPLEFAPIEWDNYLNLWNNFLELSGYNSDGSGSPRVSNAFLNEWLSRLRYICCHALFPEILSTRQKRLHGHLSRISNIDDILISMRMDAFDSLIGYYRERFHLSIKQAQYELEISNTPAKALESFIKIRDDLMIHIRQKFNVEDPFDKSLNLSEDEDEHMDERFGEKETSSGDESDREINGAKNHDNHNNDGMLSNHLKKKGLRAMMNLLHDCYFFLGSVYYNLGTRKLEEADDKHRKEKTEEVVYSDVFPKNELEEIEENRLLEQENYANAEILRKSILSSEARKVDMTIKMARTKFAPMTSNIPLRLINIEFDHKNDYSSNLAVSRCFKSLSKLIEGLNEQTKNFNELLDELLIIIYEPVHRTEDDDSTNKIIGNEEYSTSIDSQDKIFSLLGCLEIILQNRDNILTSESEVKIPKHLVPEGSIISKYQKQLLNSLRLISGTPLRTVFDELKNSRIVRRISSSNESESTIQNFEDYLLQYEVESKSLFKYNKQVRESLKILGSIYNAKTEYYSQLQRISDSLVSLHSLSAPQLSHLIRTINKSLGGTLDAKINNIESRLIYLKNLSRLKDTLNDNQILSASICLGEVEIGAIIKCGHYFCKSCILTWLRAHSKCPICKGFCSISEVYNFKFKNSTEKREKEIQEPRREGADSSQDNSNENSIISNMSEVEKLFGNKYEQFHQINEVHQIHIKESFGAKIDFVIKLISYLRLKSEQENADPPQVILYSQKTEYLKVIGKVLKLYHIEHLACLSNTANVGETINNFKRQPSVTCLLLNVKTLGAGLNLINAKHIFLLDPILNNSDELQAMGRNNRIGQDEETFVWNFMIRNTVEENILRYKCILEERKRKEKSKKGDKYDEAQDETDNEESDDAKFEISVVDQEVSNEHLWNCFFHGSD
